The results in this text go back to the supplement of paper PMC10567573.

The labels stand for the following.
B1: CHIT1 (parent)
chain: CSWKGATKQRIQDQKVPYIFRDNQ
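Further: lentivirally expressed fusions sorted by FACS into six bins by GFP to DsRed ratio, PSI derived from sequencing read proportions per bin multiplied by bin number.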

This series covers variants of B1. The series can be described thus: protein stability index of a GFP-peptide fusion (GPS, HEK-293T) (PSI 1-6); higher = more stable. The settings on record: c terminus: a fixed tail appended.
With CSWKGATKQRIQDVKVPYIFRDNQ [Q14V], the protein stability index was 1.94.

In the case of CSWKGATKQRIQDSKVPYIFRDNQ [Q14S], the protein stability index was 2.37.

Regarding CSWKGATKQRIQDYKVPYIFRDNQ [Q14Y], the protein stability index is 1.92.

As to CSWKGATKQRIQDLKVPYIFRDNQ [Q14L], the protein stability index was 2.04.

Turning to CSWKGATKQRIQDDKVPYIFRDNQ [Q14D], the protein stability index came to 2.81.

As for CSWKGATKQRIQDRKVPYIFRDNQ [Q14R], the protein stability index came out at 2.34.

For CSWKGATKQRIQDGKVPYIFRDNQ [Q14G], the protein stability index was found to be 2.79.

For CSWKGATKQRIQDHKVPYIFRDNQ [Q14H], the protein stability index was found to be 3.06.

As for CSWKGATKQRIQDFKVPYIFRDNQ [Q14F], the protein stability index was found to be 2.47.

On to CSWKGATKQRIQDTKVPYIFRDNQ [Q14T], for which the protein stability index was 2.88.

As for CSWKGATKQRIQDCKVPYIFRDNQ [Q14C], the protein stability index was 2.6.

Regarding CSWKGATKQRIQDAKVPYIFRDNQ [Q14A], the protein stability index is 3.46.

As for CSWKGATKQRIQDMKVPYIFRDNQ [Q14M], the protein stability index came to 2.21.

For CSWKGATKQRIQDEKVPYIFRDNQ [Q14E], the protein stability index was found to be 2.79.

For the variant CSWKGATKQRIQDNKVPYIFRDNQ [Q14N], the protein stability index worked out at 2.91.

Regarding CSWKGATKQRIQDWKVPYIFRDNQ [Q14W], the protein stability index is 1.99.

For the variant CSWKGATKQRIQDKKVPYIFRDNQ [Q14K], the protein stability index was found to be 1.87.

For CSWKGATKQRIQDIKVPYIFRDNQ [Q14I], the protein stability index came out at 2.35.

Consider CSWKGATKQRIQDPKVPYIFRDNQ [Q14P], for which the protein stability index is 2.98.

Consider CSWKGATKQRIQDQYVPYIFRDNQ [K15Y], for which the protein stability index turned out to be 3.73.

As for CSWKGATKQRIQDQPVPYIFRDNQ [K15P], the protein stability index was 3.22.

CSWKGATKQRIQDQVVPYIFRDNQ [K15V]: the protein stability index stood at 1.39.

As to CSWKGATKQRIQDQMVPYIFRDNQ [K15M], the protein stability index turned out to be 2.28.

As for CSWKGATKQRIQDQQVPYIFRDNQ [K15Q], the protein stability index came out at 2.19.

Turning to CSWKGATKQRIQDQGVPYIFRDNQ [K15G], the protein stability index turned out to be 2.15.

Regarding CSWKGATKQRIQDQLVPYIFRDNQ [K15L], the protein stability index was determined as 2.2.

Regarding CSWKGATKQRIQDQFVPYIFRDNQ [K15F], the protein stability index was 1.54.

For the variant CSWKGATKQRIQDQTVPYIFRDNQ [K15T], the protein stability index came to 2.48.

CSWKGATKQRIQDQDVPYIFRDNQ [K15D]: the protein stability index was determined as 3.09.

As to CSWKGATKQRIQDQCVPYIFRDNQ [K15C], the protein stability index is 2.99.

Turning to CSWKGATKQRIQDQRVPYIFRDNQ [K15R], the protein stability index was determined as 2.31.

As to CSWKGATKQRIQDQHVPYIFRDNQ [K15H], the protein stability index worked out at 2.26.

CSWKGATKQRIQDQIVPYIFRDNQ [K15I]: the protein stability index was 2.44.

For the variant CSWKGATKQRIQDQNVPYIFRDNQ [K15N], the protein stability index came to 2.75.

Take CSWKGATKQRIQDQSVPYIFRDNQ [K15S]: the protein stability index turned out to be 2.29.

For the variant CSWKGATKQRIQYQKVPYIFRDNQ [D13Y], the protein stability index worked out at 1.83.

As for CSWKGATKQRIQNQKVPYIFRDNQ [D13N], the protein stability index worked out at 1.61.

With CSWKGATKQRIQIQKVPYIFRDNQ [D13I], the protein stability index stood at 1.5.

CSWKGATKQRIQFQKVPYIFRDNQ [D13F]: the protein stability index was 1.8.

Consider CSWKGATKQRIQWQKVPYIFRDNQ [D13W], for which the protein stability index came to 1.25.

As to CSWKGATKQRIQKQKVPYIFRDNQ [D13K], the protein stability index worked out at 1.84.

In the case of CSWKGATKQRIQHQKVPYIFRDNQ [D13H], the protein stability index stood at 1.78.

For CSWKGATKQRIQGQKVPYIFRDNQ [D13G], the protein stability index is 2.15.

For CSWKGATKQRIQMQKVPYIFRDNQ [D13M], the protein stability index is 2.91.

CSWKGATKQRIQRQKVPYIFRDNQ [D13R]: the protein stability index was found to be 1.69.

Regarding CSWKGATKQRIQSQKVPYIFRDNQ [D13S], the protein stability index came out at 1.73.

In the case of CSWKGATKQRIQLQKVPYIFRDNQ [D13L], the protein stability index came to 1.75.

On to CSWKGATKQRIQPQKVPYIFRDNQ [D13P], for which the protein stability index worked out at 1.83.

In the case of CSWKGATKQRIQVQKVPYIFRDNQ [D13V], the protein stability index was 2.42.

As for CSWKGATKQRIQTQKVPYIFRDNQ [D13T], the protein stability index came to 2.56.

As to CSWKGATKQRIQQQKVPYIFRDNQ [D13Q], the protein stability index came out at 2.31.

Turning to CSWKGATKQRIQDQKEPYIFRDNQ [V16E], the protein stability index is 2.85.

As for CSWKGATKQRIQDQKRPYIFRDNQ [V16R], the protein stability index is 2.31.

With CSWKGATKQRIQDQKPPYIFRDNQ [V16P], the protein stability index turned out to be 3.31.

Take CSWKGATKQRIQDQKTPYIFRDNQ [V16T]: the protein stability index is 2.37.

Turning to CSWKGATKQRIQDQKNPYIFRDNQ [V16N], the protein stability index was 2.82.

Regarding CSWKGATKQRIQDQKYPYIFRDNQ [V16Y], the protein stability index was 1.95.

For CSWKGATKQRIQDQKMPYIFRDNQ [V16M], the protein stability index was 2.28.

For CSWKGATKQRIQDQKDPYIFRDNQ [V16D], the protein stability index came out at 2.86.

As for CSWKGATKQRIQDQKQPYIFRDNQ [V16Q], the protein stability index stood at 3.07.

With CSWKGATKQRIQDQKSPYIFRDNQ [V16S], the protein stability index stood at 2.11.

For CSWKGATKQRIQDQKFPYIFRDNQ [V16F], the protein stability index amounted to 2.32.

For the variant CSWKGATKQRIQDQKIPYIFRDNQ [V16I], the protein stability index is 2.5.

For CSWKGATKQRIQDQKWPYIFRDNQ [V16W], the protein stability index was found to be 2.04.

On to CSWKGATKQRIQDQKCPYIFRDNQ [V16C], for which the protein stability index was 3.13.

As to CSWKGATKQRIQDQKKPYIFRDNQ [V16K], the protein stability index worked out at 3.11.

Regarding CSWKGATKQRIQDQKHPYIFRDNQ [V16H], the protein stability index is 2.27.

CSWKGATKQRIQDQKLPYIFRDNQ [V16L]: the protein stability index is 2.55.

For CSWKGATKQRIQDQKGPYIFRDNQ [V16G], the protein stability index turned out to be 2.73.

As for CSWKGATKQRIQDQKVPAIFRDNQ [Y18A], the protein stability index worked out at 2.88.

As for CSWKGATKQRIQDQKVPFIFRDNQ [Y18F], the protein stability index amounted to 2.12.

As to CSWKGATKQRIQDQKVPHIFRDNQ [Y18H], the protein stability index was 2.74.

CSWKGATKQRIQDQKVPIIFRDNQ [Y18I]: the protein stability index worked out at 2.23.

With CSWKGATKQRIQDQKVPCIFRDNQ [Y18C], the protein stability index came to 2.7.

In the case of CSWKGATKQRIQDQKVPDIFRDNQ [Y18D], the protein stability index came to 3.5.

Take CSWKGATKQRIQDQKVPGIFRDNQ [Y18G]: the protein stability index amounted to 4.15.

Regarding CSWKGATKQRIQDQKVNYIFRDNQ [P17N], the protein stability index worked out at 2.51.

With CSWKGATKQRIQDQKVCYIFRDNQ [P17C], the protein stability index is 2.75.

With CSWKGATKQRIQDQKVLYIFRDNQ [P17L], the protein stability index came out at 1.33.

With CSWKGATKQRIQDQKVWYIFRDNQ [P17W], the protein stability index is 2.04.

Turning to CSWKGATKQRIQDQKVHYIFRDNQ [P17H], the protein stability index was found to be 2.4.

Turning to CSWKGATKQRIQDQKVYYIFRDNQ [P17Y], the protein stability index was 1.75.

In the case of CSWKGATKQRIQDQKVQYIFRDNQ [P17Q], the protein stability index came out at 1.98.

Turning to CSWKGATKQRIQDQKVKYIFRDNQ [P17K], the protein stability index was determined as 2.8.

Consider CSWKGATKQRIQDQKVIYIFRDNQ [P17I], for which the protein stability index stood at 1.61.

Take CSWKGATKQRIQDQKVGYIFRDNQ [P17G]: the protein stability index turned out to be 2.45.

Turning to CSWKGATKQRIQDQKVSYIFRDNQ [P17S], the protein stability index was 1.81.

With CSWKGATKQRIQDQKVDYIFRDNQ [P17D], the protein stability index stood at 3.36.

With CSWKGATKQRIQDQKVTYIFRDNQ [P17T], the protein stability index was 2.57.

For CSWKGATKQRIQDQKVAYIFRDNQ [P17A], the protein stability index was 2.64.

In the case of CSWKGATKQRIQDQKVEYIFRDNQ [P17E], the protein stability index came to 2.3.

As for CSWKGATKQRIQDQKVRYIFRDNQ [P17R], the protein stability index turned out to be 2.67.

Take CSWKGATKQRIQDQKVFYIFRDNQ [P17F]: the protein stability index was determined as 1.54.

Turning to CSWKGATKQRIQDQKVMYIFRDNQ [P17M], the protein stability index stood at 1.37.
